Tests used:
SVP70 = experiment: Inhibitory activities of various compounds to SVP70 (cleavage of peptide GPSFRAPDS); assay type: biochemical, Streptoverticillium mobaraense; conditions: analogously to (3)-vi); concentrations shown in FIG. 5
Procedure: (§1) The enzyme solution was added to 20 mM sodium phosphate buffer containing peptide GPSFRAPDS (Peptide Institute) (SEQ ID NO: 11) to yield 170 μl of total liquid volume, and it was reacted at 30° C. for 10 minutes, followed by heating at 95° C. for 5 minutes to terminate the reaction. 80 μl of this solution was analyzed by HPLC under the following conditions and its activity was calculated based on the decreased amount of the substrate.
(§2) To 20 mM sodium phosphate buffer (pH 7.0) containing various compounds at the concentrations shown in FIG. 5, the purified enzyme solution was added and left for 60 minutes at room temperature. Then Gly-Pro-Ser-Phe-Arg-Ala-Pro-Asp-Ser (SEQ ID NO: 11) was added as a substrate and reacted for 10 minute at 30° C. The relative activity by adding each compound was calculated based on the Gly-Pro-Ser-Phe-Arg-Ala-Pro-Asp-Ser (SEQ ID NO: 11) cleavage activity in the absence of compounds as 100%.
The inhibitory activities of various compounds to SVP70 were examined analogously to (3)-vi).

SVP35 = experiment: Inhibitory activities of various compounds to SVP35 (cleavage of peptide GPSFRAPDS); assay type: biochemical, Streptoverticillium mobaraense; conditions: concentrations shown in FIG. 5; 60 minutes at room temperature, then substrate 10 minute at 30° C., pH 7.0
Procedure: as §1, §2

[1] = tested on: Gly-Pro-Ser-Phe-Arg-Ala-Pro-Asp-Ser (SEQ ID NO: 11); experiment: Optimum pH of the protease (peptide cleavage in GTA buffer pH 3 to pH 10); assay type: biochemical
Procedure: as §1
In 0.15 M GTA buffer (buffered by 3,3-dimethyl glutaric acid, Tris (hydroxy methyl) amino methane, 2-amino-2-methyl-1,3-propanediol) from pH 3 to pH 10, SVP35 was allowed to act on Gly-Pro-Ser-Phe-Arg-Ala-Pro-Asp-Ser (SEQ ID NO: 11) as a substrate at 30° C. for 10 minutes.
The Optimum pH of SVP70 was examined similarly as (3)-ii).

[2] = tested on: Gly-Pro-Ser-Phe-Arg-Ala-Pro-Asp-Ser (SEQ ID NO: 11); experiment: pH stability of the protease; assay type: physicochemical
Procedure: To 10 μl of SVP35 purified enzyme solution, 40 μl of each pH of 0.15 M GTA buffer from pH 3 to pH 10 was added, left at 4° C. overnight, followed by addition of 0.1 M sodium phosphate buffer (pH 7.0) to the liquid volume of 400 μl, and was adjusted to pH 7.0. To these enzyme solutions, Gly-Pro-Ser-Phe-Arg-Ala-Pro-Asp-Ser (SEQ ID NO: 11) was added as a substrate, and reacted at pH 7.0, at 30° C. for 10 minutes.
The pH stability was examined similarly to (3)-iii).

[3] = tested on: Gly-Pro-Ser-Phe-Arg-Ala-Pro-Asp-Ser (SEQ ID NO: 11); experiment: Optimum temperature of the protease; assay type: biochemical
Procedure: To the purified enzyme solution diluted with 20 mM Tris-HCl buffer (pH 7.5) containing 5 mM calcium chloride and 0.01 mM zinc chloride Gly-Pro-Ser-Phe-Arg-Ala-Pro-Asp-Ser (SEQ ID NO: 11) was added and reacted at pH 7.0, between 5° C. and 65° C. for 10 minutes. As a result, it was shown that the Optimum temperature of SVP35 was about 45° C. and it had high activity within the range of 40° C. to 50° C.
The Optimum temperature of SVP70 was examined similarly as (3)-iv). As a result, it was shown that the Optimum temperature of SVP70 was within the range from about 50° C. to 55° C., especially around 55° C. (see FIG. 3).

[4] = tested on: Gly-Pro-Ser-Phe-Arg-Ala-Pro-Asp-Ser (SEQ ID NO: 11); experiment: Temperature stability of the protease; assay type: physicochemical; conditions: 15 minutes; activity treated at 4° C. defined as 100%
Procedure: To 10 μl of the purified enzyme solution, 40 μl of 20 mM Tris-HCl buffer (pH 7.5) containing 5 mM calcium chloride and 0.01 mM zinc chloride was added to treat at 4° C. or at from 30° C. to 70° C. for 15 minutes, and then cooled by ice, added 250 μl of 20 mM sodium phosphate buffer (pH 7.0). To this enzyme solution, Gly-Pro-Ser-Phe-Arg-Ala-Pro-Asp-Ser (SEQ ID NO: 11) was added as a substrate and reacted at 30° C. for 5 minutes. When the activity treated at 4° C. was defined as 100%, the remaining activity at each temperature was calculated. […] (see FIG. 4).

insulin B and pro-MTG = experiment: Substrate specificity (cleavage points, HPLC and sequencing of fragments); assay type: biochemical; conditions: 30° C., 2 hours, pH 7.5
Procedure: 1 mg/ml of insulin B solution and pro-MTG solution prepared in 20 mM Tris-HCl buffer (pH 7.5) containing 5 mM calcium chloride and 0.01 mM zinc chloride was used as a substrate, and an enzyme solution was added to the solution to react at 30° C. for 2 hours, and then peptide fragments were separated by HPLC under the following conditions:
The amino acid sequences of the obtained peptide fragments were analyzed by PPSQ-10 (Shimadzu Co. Ltd.) to characterize the sequences of the cleavage points for SVP35.
The substrate specificity was examined similarly as described in (3)-i).

pro-MTG = experiment: Conversion of pro-MTG into active MTG, substrate:enzyme 200:1 (SDS-PAGE, hydroxamate method); assay type: biochemical, Streptoverticillium mobaraense; conditions: substrate:enzyme=200:1, 30° C.
Procedure: Using pro-MTG (1 mg/ml) expressed by Corynebacterium glutamicum as a purified substrate, the neutral protease (SVP35, SVP70) from Streptoverticillium mobaraense or the neutral metalloprotease SGMP II from Streptomyces griseus was mixed in the ratio of the substrate:the enzyme=200:1, the mixture was reacted at 30° C. After 0, 1, 2, 4, 7, 20 hours, the reaction mixture was sequentially picked up, and the aliquots of the reaction mixture were mixed with SDS-PAGE sample buffer and heated at 95° C. for 3 minutes, and then subjected to SDS-PAGE according to Laemmli's method (Nature, 227, 680-685 (1970)). […] In addition, SGMP II was purified from actinase (Kakenseiyaku Co. Ltd.) according to the reference method (J. Biocem., Vol. 110, p. 339-344, 1991).

[5] = activity at pH 7.0 defined as 100%

**Q.** `O[C@H](CS)[C@H](O)CS` (racemic) [dithiothreitol] was tested. Which “inhibition of SVP70 activity” value (SVP70) did it give?
**A.** strong inhibitory action

**Q.** For `O=C(O)CN(CCN(CC(=O)O)CC(=O)O)CC(=O)O` [ethylene diamine tetraacetic acid], which “inhibition of SVP35 Gly-Pro-Ser-Phe-Arg-Ala-Pro-Asp-Ser cleavage activity” value (SVP35) is on record?
**A.** strongly inhibited

**Q.** And the “inhibition of SVP70 activity” value (SVP70)?
**A.** strong inhibitory action

**Q.** How did the “inhibition of SVP70 activity” value (SVP70) turn out when `NC(N)=O` [urea] was run?
**A.** strong inhibitory action

**Q.** For `CC(C)C[C@H](NP(=O)(O)O[C@@H]1O[C@@H](C)[C@H](O)[C@@H](O)[C@H]1O)C(=O)N[C@@H](Cc1c[nH]c2ccccc12)C(=O)O` [phosphoramidon], which “inhibition of SVP35 Gly-Pro-Ser-Phe-Arg-Ala-Pro-Asp-Ser cleavage activity” value (SVP35) is on record?
**A.** strongly inhibited

**Q.** And the “inhibition of SVP70 activity” value (SVP70)?
**A.** strong inhibitory action

**Q.** With `c1cnc2c(c1)ccc1cccnc12` [1,10-phenanthroline] as the molecule, how does the “inhibition of SVP35 Gly-Pro-Ser-Phe-Arg-Ala-Pro-Asp-Ser cleavage activity” value (SVP35) read?
**A.** strongly inhibited

**Q.** What about the “inhibition of SVP70 activity” value (SVP70) of the same molecule?
**A.** strong inhibitory action

B1: SVP35: neutral metalloprotease of about 35,000 from the cell surface of Streptoverticillium mobaraense IFO13819 (SEQ ID NO: 6) (protein)
chain: VLRLTATPRTTALRAAALVASAAMVVVGVQTGSASASGDRDSGGLPLTLSASQRTAAIQEAQSGASATAAKIGLSGKEKLIARDVVKDADGTVHTRYERTYDGLPVLGGDLIVHEAKAGRSVTKANDATIALPSTDASLAPAAAKKSALSAAADQKTAKADGQAPRKVVWAAQGKPVLAYETVVTGVQKDGTPSELHVITDAASGKKLYQYEAIETGTGTSTYSGTVPLTTTKSGSQYQLNDGARGGHKTYDLNQGTSGTGSLFTNSTDTWGGGRQTAGVDAHYGAAVTWDFYKNVFGRNGIRNDGKAAYSRVHYGNSYVNAFWSDSCFCMTYGDGQNNKNPLTALDVAAHEMSHGVTAATAKLVYSGESGGLNEATSDIFGTAVEFYANNKTDVGDYLIGEKINIYGDGKPLRYMDKPSKDGKSKDSWYSGIGGVDVHYSSGPANHFFYLLSEGSGKKTINGVDYDSPTADGSKVTGIGRDKAQKIWYKALTTQFTSNTNYAKARTGTLNAAASLYGNNSAEYKAVAAAWSAINVK
modifications: Streptoverticillium mobaraense
**Q.** For B1, which “Optimum pH” value ([1]; 0.15 M GTA buffer pH 3 to pH 10, 30° C., 10 minutes) is on record?
**A.** around 7.0

**Q.** What about the “activity at pH 6.0-8.0” value [1, 5] of the same molecule?
**A.** ≥ 70%

**Q.** What about the “activity at pH 6.5-7.5” value [1, 5] of the same molecule?
**A.** ≥ 80%

**Q.** What about the “activity after treatment at pH 4-10” value ([2]; activity at pH 4.0 defined as 100%) of the same molecule?
**A.** ≥ 90%

**Q.** And the “pH Stability (stable pH range)” value ([2]; left at 4° C. overnight at each pH, then reacted at pH 7.0, 30° C., 10 minutes)?
**A.** 4-10

**Q.** What about the “activity within 40° C. to 50° C. relative to that at 45° C.” value ([3]; pH 7.0, 10 minutes) of the same molecule?
**A.** ≥ 80%

**Q.** What about the Optimum temperature ([3]; pH 7.0, between 5° C. and 65° C., 10 minutes) of the same molecule?
**A.** about 45 °C

**Q.** What about the “remaining activity after treatment at 50° C.” value [4] of the same molecule?
**A.** 80%

**Q.** And the “remaining activity after treatment at 60° C.” value [4]?
**A.** lost its activity

**Q.** And the “amino acids recognized at the cleavage site” value (insulin B and pro-MTG)?
**A.** aromatic amino acids and hydrophobic amino acids with bulky side-chains positioned at P′ 1

**Q.** And the “cleavage points (residue before which the substrate is cleaved)” value (insulin B and pro-MTG)?
**A.** especially Phe, often Leu, sometimes Tyr, Trp, Ile, Val

**Q.** What about the “transglutaminase (TG) activity of the picked up fraction, hydroxamate method” value (pro-MTG) of the same molecule?
**A.** sufficient activity was confirmed

**Q.** And the “conversion of pro-MTG to the mature form (SDS-PAGE)” value (pro-MTG; 0-20 hours)?
**A.** converted to the mature forms

**Q.** What about the “reduction of produced MTG after long-term reaction” value (pro-MTG; up to 20 hours) of the same molecule?
**A.** not reduced even after a long-term reaction

B2: Streptomyces subtilisin inhibitor (SSI): Streptomyces subtilisin inhibitor derived from actinomycetes (protein)
chain: DAPSALYAPSALVLTVGKGVSATTAAPERAVTLTCAPGPSGTHPAAGSACADLAAVGGDLNALTRGEDVMCPMVYDPVLLTVDGVWQGKRVSYERVFSNECEMNAHGSSVFAF
**Q.** Which “inhibition of SVP35 Gly-Pro-Ser-Phe-Arg-Ala-Pro-Asp-Ser cleavage activity” value (SVP35) does the source give for B2 here?
**A.** strongly inhibited

**Q.** And the “inhibition of SVP70 activity” value (SVP70)?
**A.** strong inhibitory action

Reference: patent US8105802B2, “Method of producing microbial transglutaminase” (Ajinomoto Co., Inc., priority 2003, dated 2012)
